Reference: the supplement of paper PMC12042874
± gives the uncertainty stated by the source.

Test: amyloid nucleation score (Sup35N fusion, yeast selection) (log enrichment); library NNK1; higher = more nucleation; inactive = no reads after selection
How it was run: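 Output and input plasmid inserts were sequenced by Illumina after psi-negative yeast carrying Sup35N fused to peptides of 20 random codons had been induced 24 hours with 100 μM copper sulfate and grown 7 days at 30°C on medium lacking adenine and uracil. The nucleation score is the DiMSum log enrichment of output over input reads, centred on the mode score of non-aggregating sequences. Sequences with under 100 input reads were excluded.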

| Substance | amyloid nucleation score |
| --- | --- |
| PYFVIKSRWGQNRS | inactive |
| SNIFNMGY | 0.187 ± 0.35 |
| TFEYDT | 0.332 ± 0.61 |
| AICRLDVVWVT | 0.135 ± 0.37 |
| TGYVVVMVYCWSCLGGQSVA | 0.119 ± 0.89 |
| LCPGFNWESFLVKMVLHFFR | -0.606 ± 0.75 |
| VLLIPMTKAKMKMSIW | 0.584 ± 0.34 |
| DASIIPYMNMFIMLTSLA | -0.889 ± 1.7 |
| ALMNGQMVTGALITEWYNWC | 0.439 ± 0.97 |
| MENISLINGLETMYPIDRLT | -2.15 ± 2.4 |
| FGLHCINLNWVEKWFDIDGP | -0.245 ± 0.84 |
| SIGFLYCPLMSCASNFKWSK | 4.55 ± 0.068 |
| ISRSASVGRGLGKYESRAVR | 0.353 ± 1.2 |
| SASWGRYGERLHCDQRYFII | inactive |
| NWLFRQCGSQMMVYVFEFFY | -0.776 ± 0.59 |
| GISSSTLTFRTMWEDRCVEG | 0.825 ± 0.66 |
| VCVLFELMSKVKGQKARKDQ | 0.425 ± 1.1 |
| ESMDSWDYVLNISAEMVYCR | 0.366 ± 0.54 |
| LTVVTAAFRATMVEHIL | -0.368 ± 0.4 |
| ISLVLDFGDVYIVS | 6.203 ± 0.048 |
| ICKFDLALKFRGRYTEAEWC | 1 ± 0.32 |
| WTRLLD | inactive |
| VSFRFLMGFVYVKCWSSSLD | 1.38 ± 0.69 |
| VLDGVNNNILLCLISRWGVL | 4.46 ± 0.079 |
| YHVRVKYFPWNGTNVTVLDS | -0.73 ± 0.32 |

| Substance | amyloid nucleation score |
| --- | --- |
| GMSIE | -0.314 ± 0.8 |
| FLISWTIVMHVCTMTDACCR | inactive |
| AQLWRARREFSFMTPMPSVS | -0.624 ± 1.5 |
| SLNRWGVFLCEVALRLADGR | 0.542 ± 0.85 |
| GTLYWLHASV | 0.617 ± 0.47 |
| CCAISMFFELHNLHVTVMGS | 5.54 ± 0.057 |
| GGFAILNAREEHWGLKGSSM | -0.491 ± 0.55 |
| WSARHKHNTKCYFVRGQ | -0.081 ± 0.34 |
| SMRSNWPGYCTRNGFTLSLL | -0.684 ± 0.32 |
| PANSSMSSNY | 0.091 ± 1.5 |
| KQYPI | -1.33 ± 2.4 |
| FFELYRVLCTNAFLWCKGYV | -0.423 ± 0.44 |
| FCTHHWG | -0.382 ± 0.6 |
| MPKAQDALTLKNGELKRLSG | 0.295 ± 0.4 |
| FTGNLSGDCIYYFLCVVLSM | 0.47 ± 0.65 |
| QKLVDLTIRWGYRPLGRCWW | 0.622 ± 0.97 |
| MQNCISLL | -0.483 ± 0.4 |
| LSRTKGYC | 0.558 ± 0.33 |
| VCVGNAETYMERNYV | 0.531 ± 0.4 |
| TIKEGSLITTDAKYLMGMMK | 2.03 ± 0.19 |
| NNSHFQSNGNIWSNNSSPSA | inactive |
| FKTTDHFVGVYCLLYAKKQG | -0.235 ± 0.77 |
| RNQVRDSRVISGPNFSSMKK | -0.51 ± 0.71 |
| GLTCMHPWWLSHAEKRLVEL | 1.05 ± 0.49 |
| VQEYGASCKSMTGLGTLKCK | 0.876 ± 0.81 |

| Substance | amyloid nucleation score |
| --- | --- |
| IFTFSIVTSNATGYLW | 2.29 ± 0.12 |
| LTEIVYTVGAEGTLWRSGAA | 0.298 ± 0.45 |
| KLGPVTYLYP | -0.03 ± 0.72 |
| YFFVLEFIVCIVMTITSLSC | -0.988 ± 0.48 |
| RMQVKDLVDQVKTTFKCTHT | 0.303 ± 0.37 |
| ISKFFYLVW | 0.097 ± 0.52 |
| TLNKARSDYFLKRSSE | -0.025 ± 1 |
| SNEVYWQ | 1.25 ± 0.3 |
| GLKRWSIGFRDGERQSCRVR | -0.523 ± 0.35 |
| LLLLVRFYGSGSPHSGAEPI | -1.14 ± 1.5 |
| VEQSFTAAPFQDVLF | -0.38 ± 0.32 |
| HRISASTLCVIMALRFTSWR | 1.42 ± 0.44 |
| FSLLYV | 0.321 ± 0.67 |
| IVFRLS | 0.185 ± 0.38 |
| MCSSKPSGPLAVN | -1.02 ± 0.52 |
| ARNIVSFDGTFYSFKQTYTP | 2.12 ± 0.19 |
| SYTSRPYFTNIYVDYWFMVC | 6.216 ± 0.05 |
| EECGLGCAVKA | 0.188 ± 0.19 |
| FSSLWDGLLY | 1.16 ± 0.69 |
| QWCSRRDMCFRSSVILCLWR | -0.035 ± 0.75 |
| NLNTASQNIASLGLGALVLW | 0.073 ± 0.44 |
| QYIVW | 0.142 ± 0.32 |
| RFFMTHSYELYLEFRGAARR | 1.28 ± 0.42 |
| MWYNCFMTNPGFQLSPMGSI | 0.851 ± 0.55 |
| FFCLSIHVYSG | 0.46 ± 0.97 |

| Substance | amyloid nucleation score |
| --- | --- |
| EFSLGSPIKWTNHGLVIKGM | 2.71 ± 0.13 |
| YFCSSGWANVMLLLSVQTNR | 0.173 ± 0.35 |
| SGFSGVRNHPRETQLCHGSA | -0.094 ± 0.33 |
| YWLSTTIRYVCEVQATPCWI | -1.31 ± 2.7 |
| ILRPSSFNMVALDLNISLPK | 4.82 ± 0.087 |
| LYRSLLN | -0.23 ± 1.1 |
| LKVLYLRSDRVSWVSKPLVI | -0.405 ± 0.87 |
| QDAIMFGSDPLFYILLGLWG | inactive |
| LLLLAIIDRYSIWK | -0.183 ± 0.41 |
| GSGINVRDITFIL | 4.42 ± 0.071 |
| FLDYKTSSGHRLYLDRAKES | -0.492 ± 0.36 |
| VSEHSFWIWGRVPQLTQIIA | inactive |
| SGSSTVWCAYRMTGQPPGRT | 1.37 ± 0.51 |
| FYQYVKCVIVPSVDALGVFS | 0.931 ± 0.2 |
| PLSRVLGYVFIISRRTNRIL | -0.206 ± 0.28 |
| QASIYCIIRE | 0.68 ± 0.43 |
| CPRYLATNIFHAGECVNHSR | -1.08 ± 2.7 |
| FLNMASIFNFLHTNRF | 0.054 ± 1.2 |
| ESCKSVNCLMRQGDLRVTAW | -0.122 ± 0.3 |
| ANSSLLEFHTYDWDLYSACL | -1.06 ± 1.5 |
| GRGWYGSRYARVVHFVWGYA | -0.487 ± 0.34 |
| HWSSSS | -0.745 ± 0.66 |
| VLMMV | 1.28 ± 0.48 |
| MFSVFNRKRN | -0.354 ± 0.26 |
| TYLIKMSVT | 0.313 ± 0.39 |

| Substance | amyloid nucleation score |
| --- | --- |
| TWIFVSLACKAL | -0.045 ± 0.4 |
| PKNKAAVKNSMALPIARQ | -0.192 ± 0.73 |
| FGMNLILHCTPTQRTYISPV | 2.83 ± 0.092 |
| SFFLFRENFEMSNIRFRYVN | 0.995 ± 0.68 |
| GGVLLRCRTSDNTGNQRVW | inactive |
| IEQSNMVTARRLELLRSAVS | 0.339 ± 0.54 |
| RVQFRKSTVSISYQNGFCTQ | 2.73 ± 0.086 |
| FCIYVLFFRSVDYPLRVVEL | -0.529 ± 0.67 |
| VFSDTPALCIDGLKLFAMVR | -0.182 ± 0.3 |
| QYNSGLDRMA | 1.14 ± 0.62 |
| MENEWIVTSCFLFWINFYSV | 4.23 ± 0.072 |
| QFYVSVFEIYSLLTRKCACR | inactive |
| TFYSCHP | 1.49 ± 0.37 |
| NNSKFMWQLSNWSWYTWHYI | -0.392 ± 0.83 |
| MIFPDQYYYSISPW | -0.115 ± 0.28 |
| IDKGLHALLSTLLSINVSFC | 2.95 ± 0.094 |
| VLGTLSMFYFRAYFRPAWLS | -0.278 ± 0.5 |
| SNMNAFYTLEHVMPAKFEIS | 1.07 ± 0.33 |
| VTWGSSPMQKFSMVQIKS | 0.564 ± 0.48 |
| FFLEAACYSIFGVEK | -0.612 ± 0.3 |
| FRGSLIFSISVIKVISVLSE | 2.11 ± 0.14 |
| YALFADACSKGALDKVFSWV | 0.745 ± 1.2 |
| LSKCTKRKFTMCWDSLVRK | 0.779 ± 0.26 |
| QTTFGLMIFT | 0.89 ± 0.93 |
| CRRPEWCEWQGLQTEE | 0.266 ± 0.83 |

| Substance | amyloid nucleation score |
| --- | --- |
| ENCFSCNEYCERYSPALCGQ | inactive |
| FIRASWCSRIYIKFVN | 0.587 ± 0.43 |
| RYHRWFRVRSSENRWGIC | -0.51 ± 0.93 |
| HRKTSPISENQVY | -0.59 ± 0.27 |
| VRLNNCNLFFCYMTRIAFAE | 4.96 ± 0.067 |
| KFTVVVAVSCRRLPSNICRI | 0.141 ± 0.53 |
| VWRSVSRCSCVSSSIGGVTV | -0.868 ± 0.39 |
| AGIQIGWVIHSLCSSELRLS | -0.875 ± 0.69 |
| FRLTGTLALKFVVELTVRR | 2.79 ± 0.26 |
| PWASNIAFLNFPTCTDCDG | 2.09 ± 0.28 |
| RFWSAL | -0.148 ± 0.92 |
| TLLSNWVEMNPLYFMLDLPY | 0.225 ± 0.48 |
| LWCCGGAFHSTDLGSAGLIM | 0.372 ± 1.4 |
| LLFLYSLNLSRHLY | 0.71 ± 1.1 |
| NGINSVRKDLLFYNLQR | 0.107 ± 1.1 |
| SLDDPFRENCLLESFSLMLS | -0.552 ± 1.9 |
| RYAISYNLRVVGLISMYRNT | 0.655 ± 0.29 |
| QSGPSAVY | 0.362 ± 0.64 |
| NRAECSFVCTEYVNICK | -0.313 ± 0.43 |
| FISPLSISLHQWVLSSKYRE | 7.394 ± 0.044 |
| SHRSFFCSSLWMNYYCLISS | inactive |
| QYYFLLYAKSDLSKWEHHQD | -0.282 ± 0.97 |
| YNCYNF | 0.97 ± 0.69 |
| VNFILNF | 5.41 ± 0.066 |
| QDVKSMCQPFMILMVVSGGL | -0.101 ± 0.65 |

| Substance | amyloid nucleation score |
| --- | --- |
| LVVQLYS | -0.336 ± 0.62 |
| VISIGIGMDTTTRVGQMYMK | -0.115 ± 1.4 |
| TNRVTGSLWDEVWSDPGPEC | -1.28 ± 0.8 |
| LWRNKTHISVLQRGQVYHQT | 0.182 ± 0.57 |
| TMAFVKLLNGSGNLEILKFS | 0.785 ± 0.44 |
| MFLNII | -0.112 ± 0.74 |
| CNKWRYSFVCIPGISRQ | 2.22 ± 0.091 |
| LPWRRGWSFSTLVSLTGLSA | 0.353 ± 0.31 |
| ISRSICKREVLQVDR | 0.378 ± 0.51 |
| SNGHNAILVA | inactive |
| ENVCFLTKM | 0.423 ± 0.26 |
| TGCLVTWNIENLLRHQTFAM | 0.227 ± 0.38 |
| YTEQACDSVP | -0.788 ± 0.89 |
| ITPTYGT | -0.023 ± 0.39 |
| DMMAIGSTTVCLVLRFFGKM | -0.929 ± 2.7 |
| WFAGAGLIMRNVRSGW | -0.126 ± 0.66 |
| LLIRLLGQ | inactive |
| HPHVMLGILGHN | 0.752 ± 0.85 |
| GKCMYRVCYSEA | -0.056 ± 0.46 |
| VLLVGDPDLPRKRRLRRIAE | 1.23 ± 0.62 |
| RDVAMESRVSGYVGVCGSYR | -0.71 ± 1.2 |
| YKYREGGKWPL | -1.3 ± 2.4 |
| GTLNMIFRFGMHAIVSYFWG | 0.024 ± 0.4 |
